Patent US20070271623A1 (UNIVERSITY OF COPENHAGEN, published 2007)

How the values were obtained:
[1] = target: T1, mutant full-length MKS1-S30A (histidine-tagged)
T1 chain: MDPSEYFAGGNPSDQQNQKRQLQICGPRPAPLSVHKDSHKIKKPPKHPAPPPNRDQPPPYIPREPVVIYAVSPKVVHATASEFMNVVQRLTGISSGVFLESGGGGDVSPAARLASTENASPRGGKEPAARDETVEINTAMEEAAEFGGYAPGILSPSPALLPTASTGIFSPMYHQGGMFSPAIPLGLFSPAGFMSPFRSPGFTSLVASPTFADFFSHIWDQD

[2] = target: T2, mutant MKS1-S30A C3-truncation (histidine-tagged)
T2 chain: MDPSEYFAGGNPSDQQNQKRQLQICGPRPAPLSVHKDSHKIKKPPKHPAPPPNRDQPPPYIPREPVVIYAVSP

B1: HA (influenza hemagglutin antigen)-tagged MPK4 (protein)
chain: YPYDVPDYAYPYDVPDYAYPYDVPDYAYPYDVPDYAYPYDVPDYAYPYDVPDYAMSAESCFGSSGDQSSSKGVATHGGSYVQYNVYGNLFEVSRKYVPPLRPIGRGAYGIVCAATNSETGEEVAIKKIGNAFDNIIDAKRTLREIKLLKHMDHENVIAVKDIIKPPQRENFNDVYIVYELMDTDLHQIIRSNQPLTDDHCRFFLYQLLRGLKYVHSANVLHRDLKPSNLLLNANCDLKLGDFGLARTKSETDFMTEYVVTRWYRAPELLLNCSEYTAAIDIWSVGCILGETMTREPLFPGKDYVHQLRLITELIGSPDDSSLGFLRSDNARRYVRQLPQYPRQNFAARFPNMSAGAVDLLEKMLVFDPSRRITVDEALCHPYLAPLHDINEEPVCVRPFNFDFEQPTLTEENIKELIYRETVKFNPQDSV
- in vitro phosphorylation assay (32P-γ-ATP, SDS-PAGE, phosphorimager) [1]: the mutant full-length MKS1 (S30A) was phosphorylated
- in vitro phosphorylation assay (32P-γ-ATP, SDS-PAGE, phosphorimager) [2]: the mutant C3 truncated MKS1 (C3-S30A) was not phosphorylated by HA-tagged MPK4
